According to PMC10328077:

What was measured:
[1] = target: NT647-labeled apoE2(1–165) fragment (human); experiment: MST; labelled apoE2(1-165) at 2.8 nM held constant, FH402H, FH402Y, FH1-4 or FH19-20 titrated; n = 3; Kd fit model of normalized (ΔFnorm) values; 150 mM KCl, 25 mM HEPES pH 7.5, 0.01% Tween 20, 0.01% NaN3
[2] = target: NT647-FH5-7 402Y (human) (UniProt P08603); experiment: MST; NT647-FH5-7 402Y at 35 nM held constant, apoE2, apoE3 or apoE4 titrated; n = 3; Kd fit model of normalized (ΔFnorm) values; 150 mM KCl, 25 mM HEPES pH 7.5, 0.01% Tween 20, 0.01% NaN3
[3] = target: complement factor H (FH), NT647-labeled full-length FH (human) (UniProt P08603); experiment: MST; FH at 2 nM held constant (NT647-labelled by the legend of Fig 1I), native apoE2 or native apoE4 titrated; n = 3; Kd fit model of normalized (ΔFnorm) values; 150 mM KCl, 25 mM HEPES pH 7.5, 0.01% Tween 20, 0.01% NaN3
complement factor H (FH), NT647-labeled full-length FH (human), sequence (P08603 19-1231): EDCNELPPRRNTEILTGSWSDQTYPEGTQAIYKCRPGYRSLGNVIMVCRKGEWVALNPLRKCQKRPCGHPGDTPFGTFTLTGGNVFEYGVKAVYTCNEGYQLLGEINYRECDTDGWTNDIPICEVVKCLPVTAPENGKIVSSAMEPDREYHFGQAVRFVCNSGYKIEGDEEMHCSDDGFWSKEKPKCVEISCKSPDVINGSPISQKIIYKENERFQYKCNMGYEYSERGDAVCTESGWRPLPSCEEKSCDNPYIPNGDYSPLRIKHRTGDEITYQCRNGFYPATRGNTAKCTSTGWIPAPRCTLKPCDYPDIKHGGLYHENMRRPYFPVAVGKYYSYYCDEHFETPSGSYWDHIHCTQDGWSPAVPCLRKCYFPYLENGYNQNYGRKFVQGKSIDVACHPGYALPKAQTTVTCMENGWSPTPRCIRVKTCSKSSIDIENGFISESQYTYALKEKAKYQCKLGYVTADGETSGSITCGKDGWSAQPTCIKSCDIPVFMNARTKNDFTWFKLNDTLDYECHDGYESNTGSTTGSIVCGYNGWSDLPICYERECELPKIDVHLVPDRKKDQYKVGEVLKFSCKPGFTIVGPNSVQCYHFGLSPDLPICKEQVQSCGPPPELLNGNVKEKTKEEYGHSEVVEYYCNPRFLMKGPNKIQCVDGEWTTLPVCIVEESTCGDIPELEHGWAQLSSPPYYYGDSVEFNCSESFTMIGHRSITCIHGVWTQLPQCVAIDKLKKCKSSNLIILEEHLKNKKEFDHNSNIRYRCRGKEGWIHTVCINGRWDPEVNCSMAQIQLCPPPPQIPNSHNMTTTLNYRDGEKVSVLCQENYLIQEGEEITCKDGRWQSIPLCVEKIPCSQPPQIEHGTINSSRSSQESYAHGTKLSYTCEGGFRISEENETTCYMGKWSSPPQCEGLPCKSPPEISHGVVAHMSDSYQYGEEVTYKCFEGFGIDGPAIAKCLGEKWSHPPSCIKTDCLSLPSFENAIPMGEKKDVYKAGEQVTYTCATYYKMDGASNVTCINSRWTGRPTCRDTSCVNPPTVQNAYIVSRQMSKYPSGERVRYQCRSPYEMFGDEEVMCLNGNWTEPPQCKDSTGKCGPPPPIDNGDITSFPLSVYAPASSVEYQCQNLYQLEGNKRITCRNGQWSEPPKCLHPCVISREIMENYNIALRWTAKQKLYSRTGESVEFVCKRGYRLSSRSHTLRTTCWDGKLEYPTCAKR

NT647-FH5-7 402Y (human), sequence (P08603 19-1231): as above
FH402H, sequence (P08603 19-1231 Y402H): as the sequence (P08603 19-1231) above, with Y384H counted along it
FH402Y, sequence (P08603 19-1231): as the sequence (P08603 19-1231) above

Substance | Kd [1] [nM] | Kd [2] [nM] | further results
FH1-4 (domain or fragment) | 999 |  | 
FH402H (from UniProt P08603 19-1231) (natural protein) | 496 |  | 
apoE2 (from UniProt P02649 19-317) (natural protein) |  | 1000 | 
FH402Y (from UniProt P08603 19-1231) (natural protein) | 253 |  | 
apoE4 (from UniProt P02649 19-317) (natural protein) |  | 1940 | 
native apoE4 (from UniProt P02649 19-317) (natural protein) |  |  | Kd [3]: 300 nM
native apoE2 (from UniProt P02649 19-317) (natural protein) |  |  | Kd [3]: 2 nM
apoE3 (from UniProt P02649 19-317) (natural protein) |  | 1380 | 
